# Source: the RNAGym collection of RNA variant scans (doi:10.7554/elife.80360)
# B1: CPEB3 Ribozyme (parent)
# chain: GGGGGCCACAGCAGAAGCGUUCACGUCGCGGCCCCUGUCAGAUUCUGGUGAAUCUGCGAAUUCUGCUGU
# Variants of: B1
# Experiment: self-cleavage, relative activity (ratio to wild type); higher = more cleavage; co-transcriptional
row,Variant,self-cleavage
1,G31U G56U,0.568
2,G31U G58C,0.611
3,G31U G65C,0.358
4,G31U G65U,0.352
5,G31U G68A,0.957
6,G31U U36A,0.189
7,G31U U36G,0.738
8,G31U U38A,0.537
9,G31U U38C,0.505
10,G31U U38G,0.124
11,G31U U43A,0.443
12,G31U U43C,0.393
13,G31U U43G,0.454
14,G31U U44C,0.618
15,G31U U46A,0.785
16,G31U U46C,0.725
17,G31U U46G,0.638
18,G31U U49A,0.71
19,G31U U49C,0.731
20,G31U U53A,0.545
21,G31U U53G,0.411

row,Variant,self-cleavage
1,G31U U55C,0.459
2,G31U U55G,0.274
3,G31U U61A,0.289
4,G31U U61G,0.351
5,G31U U62C,0.226
6,G31U U62G,0.274
7,G31U U64A,0.446
8,G31U U64C,0.427
9,G31U U67A,0.89
10,G31U U67G,0.919
11,G31U U69A,0.876
12,G31U U69C,1.02
13,C32A,0.866
14,C32A A40C,0.321
15,C32A A40G,0.711
16,C32A A40U,0.376
17,C32A A42C,0.342
18,C32A A42U,0.504
19,C32A A51G,0.521
20,C32A A52C,0.374
21,C32A A52U,0.645

row,Variant,self-cleavage
1,C32A A59C,0.372
2,C32A A59G,0.61
3,C32A A60C,0.27
4,C32A A60U,0.257
5,C32A C33A,0.308
6,C32A C33U,0.231
7,C32A C34A,0.229
8,C32A C34U,0.362
9,C32A C35A,0.26
10,C32A C39A,0.434
11,C32A C39U,0.388
12,C32A C45G,0.667
13,C32A C54A,0.328
14,C32A C54G,0.333
15,C32A C54U,0.803
16,C32A C57G,0.27
17,C32A C57U,0.25
18,C32A C63G,0.344
19,C32A C63U,0.772
20,C32A C66A,0.698
21,C32A C66U,0.903

row,Variant,self-cleavage
1,C32A G37C,0.336
2,C32A G41A,0.344
3,C32A G41U,0.362
4,C32A G47A,0.877
5,C32A G47C,0.869
6,C32A G48A,0.875
7,C32A G48C,0.862
8,C32A G48U,0.901
9,C32A G50A,0.693
10,C32A G50C,0.716
11,C32A G56A,0.674
12,C32A G56U,0.683
13,C32A G58A,0.693
14,C32A G58C,0.841
15,C32A G65A,0.638
16,C32A G68A,0.994
17,C32A G68U,1.01
18,C32A U36A,0.275
19,C32A U36C,0.593
20,C32A U38C,0.504
21,C32A U38G,0.271
